Key:
[1] = tested on: LPA receptor-null B103 cells (empty vector); experiment: Intracellular free Ca2+ (Fura-2AM) in B103 cells transfected with empty vector; format: cell-based, rat; settings: gintonin 1 μg/ml; empty vector B103 cells
Description: LPA family receptors are endogenous to cells of most organs. B103 rat neuroblastoma cells, known as LPA receptor-null cells (Valentine et al., Biochim Biophys Acta 1780. 597-605) were transiently transfected with a plasmid (vector) carrying one of genes coding for LPA1(edg-2), LPA2(edg-4), LPA3(edg-7), LPA4, LPA5 and LPA6 receptors or a plasmid carrying none of them (empty vector). Two or three days after transfection, the cells are suspended, and made permeable. Then, the permeable cells are treated with Fura-2AM, a fluorescent dye binding to calcium, and then with gintonin, followed by spectrofluorephotometry to examine whether gintonin induces an increase in intracellular free Ca^2+ level. […]
Briefly, Fura 2-AM loaded cells were diluted with an experimental medium to a final density of 2˜4×10^6 cells/mL, and transferred to polystyrene cuvettes (Elkay Ultra-VU). […] Emission was detected at 510 nm Excitation and emission slit widths were 5 nm Background calibration was performed as described by Jørgensen et al. […]

[2] = molecular target: T1, mutant W4.64A LPA3 receptor (Homo sapiens, UniProt Q9UBY5, W167A); experiment: Intracellular Ca2+ in B103 cells with mutant W4.64A LPA3 receptor; format: cell-based; settings: W4.64A LPA3 receptor-transfected B103 cells
T1 construct: expressed in transfected cells; host or cells: B103 rat neuroblastoma cells
T1 sequence (Q9UBY5 1-353 W167A): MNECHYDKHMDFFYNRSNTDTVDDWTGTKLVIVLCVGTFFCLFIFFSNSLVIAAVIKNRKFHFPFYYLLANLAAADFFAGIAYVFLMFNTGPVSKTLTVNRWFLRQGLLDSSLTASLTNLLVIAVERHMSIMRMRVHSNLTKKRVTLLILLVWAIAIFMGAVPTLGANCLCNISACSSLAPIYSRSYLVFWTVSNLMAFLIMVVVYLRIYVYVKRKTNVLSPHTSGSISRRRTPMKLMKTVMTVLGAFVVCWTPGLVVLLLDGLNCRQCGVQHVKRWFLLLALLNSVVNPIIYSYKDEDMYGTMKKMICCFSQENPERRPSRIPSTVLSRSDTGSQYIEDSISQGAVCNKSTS
Description: That is, LPA receptors have specific amino acid residues, known as binding sites, which are responsible for interaction with LPA, and the binding of LPA to the specific amino acids starts to exert the function. This Example was configured to examine a change in the gintonin-induced intracellular calcium increase through LPA receptor activation in LPA3 receptor-expressing cells when specific amino acids of the LPA binding site in LPA receptors were mutated.
To this end, a mutant LPA receptor in which Arg3.28, known as a common LPA binding site of LPA1-LPA3 receptors, was mutated as Arg3.28Ala (that is, Arg is substituted by Ala; R3.28A) or Trp4.64, known as an LPA-binding site of LPA3 receptor was mutated as Trp4.64Ala (that is, Tip is substituted by Ala; W4.64A) (Valentine et al., J. Biol. Chem. 283, 12175-12187, 2008) was transfected to B103 cells which were then tested for the action of gintonin, in comparison with cells transfected with the wild-type. […] From the result, it is henceforth understood that the gintonin-triggered LPA receptor activation is achieved by interaction with the LPA binding sites of LPA receptors and that gintonin occupies the LPA binding sites to activate LPA receptors.

B1: gintonin: ginseng-derived glycolipoprotein; structural protein of ginseng major latex-like protein (MLP151) and ribonuclease-like storage proteins; crude gintonin used in tests (protein)
chain 1: MGLTGKLICQTGIKSDGDVFHELFGTRPHHVPNITPANIQGCDLHEGEFGKVGSVVIWNYSIDGNAMIAKEEIVAIDEEDKSVTFKVVEGHLFEEFKSIVFSVHVDTKGEDNLVTWSIDYEKLNESVKDPTSYLDFLLSVTRDIEAHHLPK
chain 2: RSDYPWAMFALRLQWPAGFCEVNNACDTKSLLNTFTIHGLYPYNAKGTPALYCDGTAFDVNSVSDFLAEMHLAWPSHETNTEDIQFWEHEWKKHGRCSEALLKQTDYFRTALAFRKAFDIVGLLNQEGIYPNNDLYRPKMIKEAIKKHLNAVPEIDFTKNENSEYVLTDINVCVNQQATRFVDCPTDDATDDYRLKFVRLPSKMKFADPRTNSII
[1]
  increase in intracellular calcium level: 22.7 ± 4.1 nM
[2]
  gintonin-induced intracellular calcium increase vs wild-type: greatly reduced

Source: patent US20140234868A1, “USE FOR GLYCOLIPOPROTEIN GINTONIN, ISOLATED AND IDENTIFIED FROM GINSENG, AS A NATURAL MEDICAL-PLANT DERIVED LIGAND” (KONKUK UNIVERSITY INDUSTRIAL COOPERATION CORP., priority 2011, published 2014)
